In article PMC3418443:

Target: IL-1 receptors on the surface of HIG-82 synoviocytes (rabbit (endogenous in HIG-82))
Assay: flow cytometry on cells

IL-1β, sequence (P01584 117-269): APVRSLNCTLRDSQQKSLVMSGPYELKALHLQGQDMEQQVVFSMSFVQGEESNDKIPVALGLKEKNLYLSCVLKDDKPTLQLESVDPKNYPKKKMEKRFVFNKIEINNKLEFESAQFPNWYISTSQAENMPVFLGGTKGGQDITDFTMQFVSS

- % cells with bound IL-1Ra-particles after pre-block with IL-1β: 2.8%
Substance: IL-1β (from UniProt P01584 117-269) (ligand)
